The experiment deals with SARS-COV-2 RBD extracellular domain expressed with a C-terminal mouse IgG2a (SARS-CoV-2). Nature of the experiment: SPR Biacore, mAb captured via anti-hFc, 25 C. (SPR reads the build-up and loss of mass on a sensor chip optically.)

Residue numbers refer to the chain shown, from its start.

B1: mAb10937 (antibody, V domains shown)
VH: QITLKESGPTLVKPTQTLTLTCTFSGFSLSTNVVGVGWIRQPPGKALEWLALIYWNDDKRYSPSLKSRLTITKDTSKNQVVLTMTNMDPVDTATYYCAHGPTGDYFDYWGQGTLVTVSS
VL: not shown
What is called Kd is the equilibrium constant for the complex coming apart. Low readings indicate a tighter complex, high ones a looser complex. What is called koff is the first-order rate constant of dissociation. Read a low koff as a long-lived complex. By kon is commonly meant the rate constant with which the complex forms. The low end stands for slow association, the high end for fast association. One may read the t½ as how long it takes for the measured level to halve. Higher therefore signals slow loss. For the molecule B1, the Kd was determined as 30.4 pM, the koff is 5.4e-05 s⁻¹, the kon worked out at 1.78e+06 M⁻¹ s⁻¹ and the “t½” value was 3.56 h.

B2: mAb10934 (antibody, V domains shown)
VH: not shown
VL: DIQMTQSPSSLSASVGDRVTITCQASQDIWNYINWYQQKPGKAPKLLIYDASNLKTGVPSRFSGSGSGTDFTFTISSLQPEDIATYYCQQHDDLPPTFGQGTKVEIKR
In turn, B2 came in with a Kd of 13.9 pM.

B3: mAb10954 (antibody, V domains shown)
VH: EVQLVESGGGLVQPGGSLRLSCAASGITVSSNYMSWVRQAPGKGLEWVSLIYSGGSTYYADSVKGRFTISRDNSKNTLYLQMNSLRVEDTAVYYCARDHGMAAAGYNYWGQGTLVTVSS
VL: B2 VL with W30N, N31K, I33L, K55E, S76N, I83F, Y87F, H91Y, D93N, T97A
With B3, the affinity, expressed as Kd, was 20.3 pM and the “t½” value came out at 4.03 h.

B4: mAb10955 (antibody, V domains shown)
VH: EVQLVESGGGLVQPGGSLRVSCAASGFTVSRNYMSWVRQAPGKGLEWVSVIYSGGSTFYADSVKGRFTISRDNSKNTLYLQMNSLRAEDTAIYYCARYIPRFDPWGQGTLVTVSS
VL: B2 VL with W30S, I33L, Y36F, K42R, K55E, H91Y, D93N, P96I, K103R, V104L
On to B4, for which binding was put at a Kd of 77.1 pM and the “t½” value came out at 2.09 h.

B5: mAb10967 (antibody, V domains shown)
VH: EVQLVESGGGLVQPGGSLRLSCAASGFTVSSNYMSWVRQAPGKGLEWVSVIYPGGSTFYADSVKGRFTISRDNSKNTLYLQMNSLRAEDTAVYYCARDQRDFAWGQGTLVTVSS
VL: B2 VL with W30S, I33L, K55E, S77G, H91Y, D93N, K103R, V104L
As for B5, the affinity, expressed as Kd, was 20.3 pM and the “t½” value was 14.3 h.

B6: mAb10938 (antibody, V domains shown)
VH: EVQLVESGGGLVQPGGSLRLSCAVSGFTVSSNYMSWVRQAPGKGLEWVSLIYSGGSTFYADSVKGRFTISRHNSKNTLYLQMNSLRAEDTAVYYCAREGGYSYDYNYWGQGTLVTVSS
VL: B2 VL with W30R, I33L, K55E, S65I, H91Y, D93N, P96I, K103R, V104L
As for B6, the Kd came to 70.2 pM and the “t½” value was 11.4 h.

B7: mAb10935 (antibody, V domains shown)
VH: EVQLVESGGGLVQPGGSLRLSCAASGFTVSSNYMSWVRQAPGKGLEWVSLIYSGGSTYYADSVKGRFTISRHNSKNTLYLQMNSLRSEDTAVYYCARVPLGDYYYGMDVWGQGTTVTVSS
VL: B2 VL with W30N, N31K, I33L, K55E, H91S, D93N, P96L, Q100G
Turning to B7, the Kd worked out at 79.4 pM, the koff is 0.000107 s⁻¹, the kon came to 1.35e+06 M⁻¹ s⁻¹ and the “t½” value stood at 1.8 h.

B8: mAb10921 (antibody, V domains shown)
VH: EVQLVESGGGLVQPGGSLRLSCAASGITVSSNYMSWVRQAPGKGLEWVSVIYSGGSTFYADSVKGRFTISRHNSKNTLYLQMNSLRAEDTAVYYCARERNFDAFDIWGQGTMVTVSS
VL: DIQMTQSPSSVSASVGDRVTITCRASQGISSWLAWYQQKPGKAPKLLIYAASSLQSGVPSRFSGSGSGTDFTLTISSLQPEDFATYYCQQANSFPLFTFGPGTKVDIKR
Turning to B8, the Kd came to 125 pM, the dissociation rate constant (koff) turned out to be 3.34e-05 s⁻¹, the kon was found to be 266000 M⁻¹ s⁻¹ and the “t½” value was 5.76 h.

B9: mAb10939 (antibody, V domains shown)
VH: EVQLVESGGGLVQPGGSLRLSCAASGLTVSSNYMNWVRQVPGKGLEWVSVIYSGGSKFYVDSVKGRFTISRHNSKNTLYLQMNSLRPEDTAVYYCTRDAQYYGMDVWGQGTTVTVSS
VL: DIQMTQSPSSLSASVGDRVTITCRASQSISTYLHWYQQKPGEAPKLLIYAASSLQSGVPSRFSGSGSGTDFTLTISSLQPEDFATYYCQQSYSTPPEIFGQGTKLEIKR
With B9, the Kd was determined as 121 pM, the koff stood at 8.74e-05 s⁻¹, the association rate constant (kon) was determined as 722000 M⁻¹ s⁻¹ and the “t½” value turned out to be 2.2 h.

B10: mAb10964 (antibody, V domains shown)
VH: QVQLQESGPGLVKPSETLSLTCTVSGGSINNYYWIWIRQPPGKGLEWIGYIYHSGSTNYNPSLKSRVTISVDTSKNQFSLKVSSVTAADTAVYYCANMVRGVYEDDYWGQGTLVTVSS
VL: DIQMTQSPSSLSASVGDRVTITCRASQSISNYLNWYQQKPGKAPKLLIFAASSLRSGVPSRFSGSGSGTDFTLTISSLHPEDFATYYCQQNYNTPLTFGPGTKVDIKR
Consider B10, for which the affinity, expressed as Kd, was 3.97 pM and the “t½” value came to 5.22 h.

B11: mAb10920 (antibody, V domains shown)
VH: QVQLVESGGGVVQPGRSLRLSCAASGFTFSYYGMHWVRQAPGKGLEWVAVIWYDGSNKFYADSVKGRFTISRDNSKNTLYLQMNSLRAEDTAVYYCAAARPGYYYGMDVWGQGTTVTVSS
VL: DIQMTQSPSSLSASVGDRVTITCRASQGISNYLAWFQQKPGKAPNSLIYAASSLQRGVPSKFSGSGSGTDFTLTISSLQPEDFATYYCQQYNSYPRTFGQGTKVEIKR
Regarding B11, the equilibrium dissociation constant (Kd) was 50.2 pM and the “t½” value was determined as 0.755 h.

B12: mAb10914 (antibody, V domains shown)
VH: EVQLVESGGGLVQPGGSLRLSCAASGLIVSRNYMIWVRQAPGKGLEWVSVIYSGGSTFYADSVKGRFTISRHNSKNTLYLQMNSLRAEDTAVYYCARDLGTGGMDVWGQGTTVTVSS
VL: DIQLTQSPSFLSASVGDRVTITCWASQGISSYLAWYQQKPGKAPKLLIYAASTLQSGVPSRFSGSGSGTEFTLTISSLQPEDFATYYCQQLNSYPLTFGGGTKVEIKR
Regarding B12, the Kd was found to be 540 pM and the “t½” value amounted to 1.38 h.

B13: mAb10957 (antibody, V domains shown)
VH: B12 VH with L27V, I28T, R31S, I35S, H72D, Y79F, A87I, T101P, G102Y
VL: B8 VL with M4L, S10F, V11L, W32Y, S53T, D70Q, T72I, A91L, F94Y, L96G
For the molecule B13, binding was put at a Kd of 32.7 pM and the “t½” value is 5.75 h.

B14: mAb10956 (antibody, V domains shown)
VH: B12 VH with I28T, R31S, I35S, H72D, G100I, T101K, G102Y
VL: not shown
B14: the affinity, expressed as Kd, was 88.7 pM and the “t½” value is 1.48 h.

B15: mAb10932 (antibody, V domains shown)
VH: EVQLVESGGGLVQSGGSLRLSCAASGLTVSSNYMSWVRQAPGKGLEWVSVIYSGGSTFYSDSVKGRFTISRHNSKNTLYLQMNSLRAEDTAVYYCARARGDAFDIWGQGTMVTVSS
VL: not shown
Take B15: the Kd was determined as 96.7 pM, the koff was 2.85e-05 s⁻¹, the association rate constant (kon) came out at 295000 M⁻¹ s⁻¹ and the “t½” value amounted to 6.75 h.

B16: mAb10915 (antibody, V domains shown)
VH: EVQLVESGGGLVQPGGSLRLSCAASGFTVSSNYMNWVRQAPGKGLEWVSVIYSGGSTFYADSVKGRFTISRHNSKNTLYLQMNSLRPEDTAVYYCARDLGGYFDYWGQGTLVTVSS
VL: not shown
Turning to B16, the Kd was 32.3 pM and the “t½” value stood at 21.1 h.

B17: mAb10936 (antibody, V domains shown)
VH: QVQLVESGGGVVQPGRSLRLSCAASGFTFRNYGMHWVRQAPGKGLEWVSVIWYDGSNRYYADSVKGRFTISRDTSKNTLYLQMNSLRAEDTAVYYCARDPPITGTTGGDAFDIWGQGTMVTVSS
VL: not shown
B17: the Kd was found to be 28.3 pM, the koff is 5.04e-05 s⁻¹, the kon was 1.78e+06 M⁻¹ s⁻¹ and the “t½” value was 3.82 h.

B18: mAb10923 (antibody, V domains shown)
VH: QVQLVQSGAEVKKPGASVKVSCKASGYTFINYYIHWVRQAPGQGLEWMGWINPNSGGTNYAQKFQGRVTMTRDTSISTAYMELSRLRSDDTAVYYCAIITIFGVVTWFDPWGQGTLVTVSS
VL: not shown
As for B18, the dissociation constant (Kd) was determined as 36.7 pM, the koff worked out at 0.000135 s⁻¹, the kon was 3.69e+06 M⁻¹ s⁻¹ and the “t½” value was found to be 1.43 h.

B19: mAb10965 (antibody, V domains shown)
VH: EVQLVESGGGLIQPGGSLRLSCAASVFTVSYNYMSWVRQAPGKGLEWVSVIYSGGSTYYADSVKGRFTISRDNSKNTLYLQMNSLRAEDTAVYYCARALPGWGGSFEYFDYWGQGTLVTVSS
VL: not shown
Turning to B19, the Kd amounted to 225 pM and the “t½” value was determined as 1.23 h.

B20: mAb10930 (antibody, V domains shown)
VH: EVQLVESGGGLVQPGRSLRLSCAASGFTFDDYAMYWVRQAPGKGLEWVSGISWNSGSIGYADSVKGRFTISRDNAKNSLYLQMNSLRAADTALYYCAKDKDWNSRGYYYYGMDVWGQGTTVTVSS
VL: not shown
As for B20, the Kd came out at 181 pM, the koff worked out at 0.000171 s⁻¹, the kon came out at 943000 M⁻¹ s⁻¹ and the “t½” value stood at 1.12 h.

B21: mAb10913 (antibody, V domains shown)
VH: EVQLVESGGGLVQPGGSLRLSCAASGFTFRNYEMNWVRQAPGKGLEWVSYITSSGSTMYYADSVKGRFTISRDNAKNSLYLQMNSLRAEDTAVYYCARDGFYYYYAMDVWGQGTTVTVSS
VL: QSVLTQPPSVSAAPGQKVTISCSGSSSNIGNNYVSWYQQLPGTAPKLLIYDNNKRPSGIPDRFSGSKSGTSATLGITGLQTGDEADYYCGTWDSSLSVGRVFGTGTKVTVLG
With B21, binding was characterised by a dissociation constant (Kd) of 55.3 pM, the koff was determined as 0.000277 s⁻¹, the kon is 5e+06 M⁻¹ s⁻¹ and the “t½” value turned out to be 0.695 h.

B22: mAb10966 (antibody, V domains shown)
VH: EVQLVESGGGLVQPGGSLRLSCAASGLTVSSNYMSWVRQAPGKGLEWVSVIYSGGSTFYADSVKGRFTISRDNSKNTLYLQMNSLRPEDTAVYYCAREGRIAATGYGMDVWGQGTTVTVSS
VL: not shown
With B22, the affinity, expressed as Kd, was 22.4 pM and the “t½” value was found to be 5.71 h.

B23: mAb10969 (antibody, V domains shown)
VH: QVQLVESGGGVVQPGRSLRLSCAASGFTFSSYAMHWVRQAPGKGLEWVAVISYDGSNKYYADSVKGRFTISRDNSKNTLYLQMNSLRAEDTAVYYCARDGRTITMVRGVIDDAFDIWGQGTMVTVSS
VL: not shown
Consider B23, for which binding was put at a Kd of 216 pM and the “t½” value amounted to 1.93 h.

(Values after patent publication US20240043504A1 (published 2024).)
